Km, kcat and kcat/Km data for one substance are collected here from paper PMC8715002, “Biochemical and Structural Characterization of a Novel Bacterial Tannase From Lachnospiraceae bacterium in Ruminant Gastrointestinal Tract” (Frontiers in Bioengineering and Biotechnology, 2021).

What all share (assay): purified protein
Holding throughout (format): biochemical, Lachnospiraceae bacterium
What all share (settings): pH 7.0, 50 °C, 0.2–5 mM substrate

In series [1] the test system is T1, CCCCCCCCCCCCOC(=O)c1cc(O)c(O)c(O)c1.
T1 construct: about 68 kDa, monomer; catalytic Ser205/Asp582/His614; forward primer reads MSQSTATR; signal peptide not discussed

The test system of series [2] is T2, CCCOC(=O)c1cc(O)c(O)c(O)c1.
T2 construct: about 68 kDa, monomer; catalytic Ser205/Asp582/His614; forward primer reads MSQSTATR; signal peptide not discussed

Series [3] has as its system T3, CCOC(=O)c1cc(O)c(O)c(O)c1.
T3 construct: about 68 kDa, monomer; catalytic Ser205/Asp582/His614; forward primer reads MSQSTATR; signal peptide not discussed

Series [4] has as its system T4, COC(=O)c1cc(O)c(O)c(O)c1.
T4 construct: about 68 kDa, monomer; catalytic Ser205/Asp582/His614; forward primer reads MSQSTATR; signal peptide not discussed

Broadly, the Km is the concentration of substrate that gives half-maximal velocity. A word on the kcat: it is the maximal rate divided by the concentration of active sites. The term kcat/Km denotes the second-order rate constant that governs catalysis at low substrate concentration. Regarding “TanALb (tannase from Lachnospiraceae bacterium) (Lachnospiraceae bacterium)”, the Km in series [1] amounted to 1800 ± 260 µM; in series [2], 2000 ± 220 µM; in series [3], 2600 ± 190 µM; in series [4], 2800 ± 350 µM. Also, the kcat in series [1] was 24.6 ± 5.2 s⁻¹; in series [2], 44.2 ± 3.6 s⁻¹; in series [3], 78.8 ± 10.4 s⁻¹; in series [4], 82.5 ± 6.3 s⁻¹. For the same substance, the kcat/Km in series [1] was determined as 15300 ± 2100 M⁻¹ s⁻¹; in series [2], 24500 ± 4000 M⁻¹ s⁻¹; in series [3], 33300 ± 7300 M⁻¹ s⁻¹; in series [4], 36400 ± 4400 M⁻¹ s⁻¹.
